Source: patent publication US8669347B2, “Truncated variant of the mammalian target for rapamycin (MTOR) protein” (UCL Business PLC, priority 2007, dated 2014)

Columns and labels:
[1] = test system: Hek293 cells; assay: Recovery from Sorbitol-induced stress; format: cell-based, human; settings: overexpressing cells, compared with mTORα overexpressing cells
[2] = test system: Hek293 stable cell lines; assay: Cell proliferation assay (Resazurin based) of Hek293 stable cell lines; design: species or system human; settings: six independent studies
Protocol: (§1) Hek293 stable cell lines, over-expressing mTORβ wt, mTORα wt or EGFP were seeded into a 96 well plate at various densities (250, 500, 1000 and 2000 cells per well) and grown under standard conditions for 7 days. Cell numbers were than measured in each well by a Resosurin based assay. Normalized growth curves for each cell line were calculated using data from six independent experiments (A). Western blot analysis of total cell lysates of stable cell lines with antibodies to c-myc and its transcription targets (B). The level of proteins was densitometrically measured, actin normalized and folds were calculated against EGFP expressing stable cell line (C).
(§2) HEK293 stable cell lines, overexpressing mTORβ wt, mTORβ kinase-dead or EGFP were seeded into 96 well plate at various densities (1000, 2000, 4000 and 8000 cells per well) and grown under standard conditions for 5 days. Cell numbers were then measured in each well by Resazurin based assay. Normalized growth curves for each cell line were calculated using data from six independent experiments (A). Western blot analysis of total cell lysates of stable cell lines with antibodies to c-myc and its transcription targets. The level of proteins was densitometrically measured, actin normalized and folds were calculated against EGFP expressing stable cell line (B). […]

[3] = test system: c-Myc; assay: Western blot of c-Myc protein level in transfected HEK293 cells; format: cell-based, human; settings: HEK293 transiently transfected, lysed two days after transfection
Protocol: as §1, §2

[4] = test system: Hek293 cells; assay: BrdU pulse-chase cell cycle analysis by FACS; format: cell-based, human; settings: overexpressing cells vs mTORα or control (EGFP) cells; BrdU 30 minutes, chased 24 hours
Protocol: HEK293 cells stably overexpressing mTORβ, mTORα or EGFP were pulse labeled with BrdU for 30 minutes and chased every 2 hours for 24 hours. The incorporation of BrdU was measured by FACS analysis. Duration of G1, S and G2 phases of cell cycle observed for each cell line is presented on graph. SD, p=0.05.
To further investigate the role of mTORβ in the cell cycle, Hek293 cells overexpressing mTORβ, mTORα or EGFP were pulse labeled with BrdU for 30 minutes and chased every 2 hours for 24 hours. Incorporation of BrdU into the cells was measured by FACS analysis. The duration of the G1, S and G2 phases of cell cycle observed for each cell line was determined (see FIG. 12). The duration of S and G2 phases were similar in all three cell groups. However, the duration of the G1 phase was shorter in the mTORβ overexpressing cells than in the mTORα or control cells.

[5] = test system: S6K1; assay: mTOR in vitro kinase assay, His-S6K1C substrate; format: biochemical; settings: FLAG immunoprecipitate from Hek293 cells, compared with mTORα
Protocol: (§3) HEK293 cells were transfected with pcDNA3.1 or pcDNA 3.1 mTORβ. One day later, cells were starved for 24 hours and than stimulated with 10% fetal bovine serum for 1 hour. Rapamycin (10 nM) was added 30 minutes before stimulation. Cells were lysed, resolved by SDS-PAGE and immunobloted with the C-terminal anti-mTOR and pS2448 mTOR antibodies. […] Two days later, cells were lysed and immunoprecipitated with anti-FLAG antibody. The immune complexes were used in mTOR in vitro kinase assay with His-4E-BP1 and His-S6K1C as substrates. Kinase reactions were resolved by SDS-PAGE and immunoblotted with phosphospecific antibodies to 4E-BP1 p65 and S6K1 p389. The level of immunoprecipitated FLAG-mTORα and FLAG-mTORβ was measured by Western blotting with anti-FLAG.
(§4) Is mTORβ able to phosphorylate S6K and 4E-BP1, which are the main physiological substrates for mTORα? […] The immune complexes were then used in mTOR kinase reactions, containing cold ATP and recombinant 4E-BP1 or His-S6K1C. The kinase reactions were resolved by SDS-PAGE and immunoblotted with phosphospecific antibodies pT389-S6K1 and pS65-4E-BP1.
(§5) mTOR in vitro kinase assay was performed as published previously (Kim et al. 2002). […] The reactions were stopped by adding 5× sample buffer and resolved by SDS-PAGE and analyzed by immunoblotting.

[6] = test system: Hek293 stable cell lines; assay: Serum starvation cell survival, Trypan Blue dye exclusion assay; format: cell-based, human; settings: stable overexpressing lines serum starved for 60 hours
Protocol: Hek293 stable cell lines, overexpressing mTORβ wt, mTORα wt, mTORβ kinase dead or EGFP were serum starved for 60 hours. Cell survival was assessed by the Trypan Blue dye exclusion assay. Data are means±SE of 5 experiments. * P value≦0.01.
The effects of mTORβ in serum starved cells were also assessed. Hek293 stable cell lines, overexpressing mTORβ wt, mTORα wt, mTORβ kinase dead or EGFP were serum starved for 60 hours. Cell survival was assessed by the Trypan Blue dye exclusion assay.

[7] = test system: Hek293 cells; assay: Colony formation in agarose (oncogenic potential); format: cell-based, human; settings: stably overexpressing cells, 14 days, MTT stain, compared with mTORα and control cells
Protocol: HEK293 cells stably overexpressing mTORβ, mTORα or EGFP were plated in a thin layer of agarose in culture medium. After 14 days, colonies were stained using MTT (A). Colonies were counted using Quantity One Software (Bio-Rad) and folds were plotted (B). Data are means±SE of 4 experiments. * P value≦0.01.
To further investigate the effect of mTORβ expression on cell oncogenic potential, Hek293 cells stably overexpressing mTORβ, mTORα or EGFP were plated in a thin layer of agarose in culture medium. After 14 days, colonies were stained using MTT (see FIG. 14A). Colonies were counted using quantity 1 software (Bio-Rad) and folds were plotted (see FIG. 14B).

[8] = test system: 4E-BP1; assay: mTOR in vitro kinase assay, 4E-BP1 substrate; format: biochemical; settings: FLAG immunoprecipitate from Hek293 cells, recombinant 4E-BP1 substrate, compared with mTORα
Protocol: as §3, §4, §5

[9] = test system: Raptor, Rictor, and GβL; assay: Co-immunoprecipitation with mTOR binding partners in HEK293 cells; settings: anti-FLAG immunoprecipitation from transfected HEK293 cells
Protocol: HEK293 cells were transfected with pcDNA3.1-mTORβ-FLAG and pRK-Raptor-HA or pcDNA3.1-mTORβ-FLAG and pRK-Rictor-Myc or pcDNA3.1-mTORβ-FLAG and pcRK-GβL. The supernatants of lysed cells were immunoprecipitated with anti-FLAG antibody or control nonspecific antibody. The immune complexes or total cell lysates from transfected cells (15 μg) were resolved by SDS-PAGE and probed in Western blotting with anti-HA, anti-Rictor, or anti-GβL antibodies.
HEK293 cells were washed with ice-cold phosphate-buffered saline (PBS) and extracted with the lysis buffer containing 50 mM HEPES (pH 7.5), 150 mM NaCl, 1% (v/v) Triton X100, 2 mM EDTA, 50 mM sodium fluoride, 10 mM sodium pyrophosphate, 1 mM sodium orthovanadate, and a mixture of protease inhibitors (Roche Applied Science). Whole-cell extracts were centrifuged at 10,000×g for 30 minutes at 4° C. Endogenous or transiently expressed proteins were immunoprecipitated with corresponding antibodies immobilized on protein A-Sepharose beads (Amersham Biosciences) for 3 hours at 4° C. The immune complexes were then washed once with Tris-buffered saline containing 0.05% Tween 20 and the Wash Buffer 1 (50 mM HEPES [pH 7.5], 40 mM NaCl, and 2 mM EDTA) with 1% Triton X-100, Wash Buffer 1 with 500 mM LiCl and 0.5% Triton X-100, Wash Buffer 1 with 500 mM LiCl, and Wash Buffer 2 (50 mM HEPES [pH 7.5] and 150 mM NaCl). […]

B1: mTORβ: splice form of mTOR: fusion of amino acids 1 to 23 and 1867 to 2549 of mTORα, 706 amino acids (SEQ ID NO: 2) (protein, listed as Homo sapiens)
chain: MLGTGPAAATTAATTSSNVSVLQKKVTEDLSKTLLMYTVPAVQGFFRSISLSRGNNLQDTLRVLTLWFDYGHWPDVNEALVEGVKAIQIDTWLQVIPQLIARIDTPRPLVGRLIHQLLTDIGRYHPQALIYPLTVASKSTTTARHNAANKILKNMCEHSNTLVQQAMMVSEELIRVAILWHEMWHEGLEEASRLYFGERNVKGMFEVLEPLHAMMERGPQTLKETSFNQAYGRDLMEAQEWCRKYMKSGNVKDLTQAWDLYYHVFRRISKQLPQLTSLELQYVSPKLLMCRDLELAVPGTYDPNQPIIRIQSIAPSLQVITSKQRPRKLTLMGSNGHEFVFLLKGHEDLRQDERVMQLFGLVNTLLANDPTSLRKNLSIQRYAVIPLSTNSGLIGWVPHCDTLHALIRDYREKKKILLNIEHRIMLRMAPDYDHLTLMQKVEVFEHAVNNTAGDDLAKLLWLKSPSSEVWFDRRTNYTRSLAVMSMVGYILGLGDRHPSNLMLDRLSGKILHIDFGDCFEVAMTREKFPEKIPFRLTRMLTNAMEVTGLDGNYRITCHTVMEVLREHKDSVMAVLEAFVYDPLLNWRLMDTNTKGNKRSRTRTDSYSAGQSVEILDGVELGEPAHKKTGTTVPESIHSFIGDGLVKPEALNKKAIQIINRVRDKLTGRDFSHDDTLDVPTQVELLIKQATSHENLCQCYIGWCPFW
In the case of B1, the “recovery from Sorbitol-induced stress” value [1] is reported as “much faster”, the “proliferation rate in comparison to control (EGFP) cells” value ([2]; overexpressing stable lines grown 5 days) is reported as “approximately 1.6 times faster” and the “proliferation compared to control (EGFP) cells” value ([2]; overexpressing stable lines grown 7 days) is reported as “proliferate faster”. The c-Myc protein level [3] was “significant increase”, the “duration of the G1 phase” value [4] was “shorter” and the “phosphorylation of S6K1 (pT389) in vitro” value [5] was “to a lesser extent than mTORα”. The “cell survival after serum starvation” value [6] was “protected cells from starvation induced cell death”, the “cell oncogenic potential (colonies in agarose)” value [7] was “increase in cell oncogenic potential” and the “phosphorylation of 4E-BP1 (pS65) in vitro” value [8] was “to a lesser extent than mTORα”. For the same molecule, the “complex formation with exogenously expressed Raptor, Rictor, and GβL” value [9] was “form specific complexes”.
